Source: publication PMC7605441

Legend:
[1] = molecular target: RAD51 (UniProt Q08297); experiment: co-IP of RAD51AP1-mCherry, RAD51-GFP blotted; details: reference: wild type, asynchronous cells; sites T305
[2] = molecular target: RAD51 (UniProt Q08297); experiment: co-IP of RAD51-GFP, RAD51AP1-mCherry blotted; details: reference: wild type, asynchronous cells; sites T305

other: percent reduction vs wild type [1]: 90% | other: percent reduction vs wild type [2]: 62%
Substance: RAD51AP1 (from UniProt Q8C551) T305A
